B1: mouse ephrin-A1 (soluble, Fc-conjugated) (Fc fusion)
chain: ADRHIVFWNSSNPKFREEDYTVHVQLNDYLDIICPHYEDDSVADAAMERYTLYMVEHQEYVACQPQSKDQVRWNCNRPSAKHGPEKLSEKFQRFTPFILGKEFKEGHSYYYISKPIYHQESQCLKLKVTVNGKITHNPQAHVNPQEKRLQADDPEVQVLHSIGYS
B2: human ephrin-A5 (soluble, Fc-conjugated) (Fc fusion)
chain: QDPGSKAVADRYAVYWNSSNPRFQRGDYHIDVCINDYLDVFCPHYEDSVPEDKTERYVLYMVNFDGYSACDHTSKGFKRWECNRPHSPNGPLKFSEKFQLFTPFSLGFEFRPGREYFYISSAIPDNGRRSCLKLKVFVRPTNSCMKTIGVHDRVFDVNDKVENSLEPADDTVHESAEPSRGEN
B3: mouse ephrin-A2 (soluble, Fc-conjugated) (Fc fusion)
chain: RNEDPARANADRYAVYWNRSNPRFQVSAVGDGGGYTVEVSINDYLDIYCPHYGAPLPPAERMERYILYMVNGEGHASCDHRQRGFKRWECNRPAAPGGPLKFSEKFQLFTPFSLGFEFRPGHEYYYISATPPNLVDRPCLRLKVYVRPTNETLYEAPEPIFTSN

The target of the experiment is tetrameric soluble CedV G (sG) (Cedar virus). Nature of the experiment: SPR.
As for human ephrin-A1 Fc (Fc fusion), the Kd amounted to 4210 nM and the koff came out at 0.00981 s⁻¹.

For “mouse ephrin-B2 (soluble, Fc-conjugated) (from UniProt P52800 29-232) (Fc fusion)”, the Kd was determined as 0.56 nM, the koff worked out at 0.00103 s⁻¹ and the kon turned out to be 1.84e+06 M⁻¹ s⁻¹.

Turning to “mouse ephrin-B1 (soluble, Fc-conjugated) (from UniProt P52795 25-345) (Fc fusion)”, the Kd came out at 0.24 nM and the koff is 0.00029 s⁻¹.

Take B1: the dissociation constant Kd amounted to 24.5 nM, the koff was 0.00179 s⁻¹ and the kon was 73900 M⁻¹ s⁻¹.

B2: the Kd turned out to be 113 nM and the koff was determined as 0.00079 s⁻¹.

B3 yielded a Kd of 196 nM, a koff of 0.00636 s⁻¹ and a kon of 32400 M⁻¹ s⁻¹.

Source of the values: article PMC6789926.
